US5972608

Key:
[1] = tested on: SWI/SNF complex (Saccharomyces cerevisiae); assay: cleavage_in_vitro; details: kcat of nucleosome remodeling, SalI-coupled; 1 mM ATP, 125 mM NaCl, 2.5 mM MgCl2; no stimulation without ATP or with ATPgS
[2] = tested on: SalI restriction endonuclease; assay: cleavage_in_vitro; details: 125 mM NaCl

Substance	activity [1]	activity ([2]; second slow phase, nucleosomal DNA, Kconf 3.2e-3, 2.5 mM MgCl2)	activity ([2]; naked DNA, 2.5 mM MgCl2, 37 C, +/-0.03e-4)
11-mer 5S SalI nucleosome array (pCL7c template with histone octamers)	0.22 min⁻¹	9.19e-07 U^-1 min^-1	
11-mer 5S SalI array template (pCL7c)			0.000286 U^-1 min^-1
